Reference: patent publication US20200237928A1 (UNIVERSITY OF MIAMI, published 2020)
Side-chain parts run from the residue outwards. [ ]: non-standard residue; d: D form. Abu = CC[C@H](N)C(=O)O; Ahx = NCCCCCC(=O)O

What was measured:
[1] = biological target: T1, recombinant mouse IL4Rα extracellular domain (Ile26-Arg233), cleaved by factor Xa from the IL4Rα/human IgG1 … (mouse, UniProt P16382 26-233); assay: FACS on IL4Rα-conjugated epoxybeads; 4PD against the FITC-peptide
T1 construct: range 26-233; Factor Xa cleavage in the IEGRMD spacer may leave some spacer residues at the C-terminus; Covalently linked to M-450 epoxy beads; also called recombinant IL4Rα; IL4Rα conjugated epoxybeads
T1 sequence (looked up): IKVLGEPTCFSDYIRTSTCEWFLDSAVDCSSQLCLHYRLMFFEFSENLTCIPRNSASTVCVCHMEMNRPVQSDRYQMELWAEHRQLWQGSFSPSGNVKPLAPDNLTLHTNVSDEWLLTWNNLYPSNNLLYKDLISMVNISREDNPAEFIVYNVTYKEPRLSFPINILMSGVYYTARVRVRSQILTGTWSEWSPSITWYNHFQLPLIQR
Experimental: (§1) Epoxybeads were conjugated with recombinant IL4Rα and used as binding target of 4PD or of the targeting peptide. Briefly, the recombinant chimeric IL4Rα protein composed by the mouse IL4Rα (Ile26 Arg233) and the human IgG1 (Pro100 Lys330) linked by the IEGRMD spacer polypeptide and generated in the NSO myeloma cell line was purchased by R&D systems (Minneapolis, Minn., USA). The protein was treated for 24 hours with 1.5% w/w factor Xa (SIGMA. St. Louis, Mo., USA) in tris-HCl (20 mM) and NaCl (200 mM) to cleave the IL4Rα extracellular domain. Factor Xa was removed by the solution using the Factor Xa removal resin (QIAGEN, Valencia, Calif., USA) and following the manufacturer instruction. IgG-linker fraction was removed from the solution by using protein-A conjugated magnetic beads (Invitrogen, Carlsbad, Calif., USA). The purity obtained by this procedure assessed by SDS PAGE was higher than 95% with only trace of IgG (data not shown). The obtained IL4Rα fraction was linked to epoxy magnetic beads M-450 by an overnight (ON) incubation at room temperature (RT) of 20×10⁶ beads with 10 μg of protein in a final volume of 1 mL in a sodium phosphate buffer (pH:8.0). […] Correct conjugation was evaluated via FACs after labeling with an anti-IL4Rα antibody.
(§2) Next, the binding of the 4PD to the IL4Rα was evaluated. […] Beads were washed twice with PBS and the binding evaluated by FACS.

[2] = biological target: T1, recombinant mouse IL4Rα extracellular …; assay: FACS; Alexa555-shRNA/4PD complexes titrated on IL4Rα-conjugated epoxybeads, 10 min at RT; apparent Kd; peptide conjugated to the dendrimer (4PD)
Experimental: as §1, §2

B1: 4PD: G5 PAMAM dendrimer conjugated to the IL4Rα targeting peptide (acetyl)-LQRLFRAFR[Abu]LD[Ahx]C(amide), loaded with Alexa555-conjugated shRNA (other)
peptide: Ac-LQRLFRAFR[Abu]LD[Ahx]C([m‑maleimidobenzoyl-G5 PAMAM dendrimer])-NH2
modifications: also: several peptide copies on one G5 PAMAM dendrimer, complexed with Alexa555-labelled shRNA
notes: Not a plain protein: several copies of the peptide sit on a G5 PAMAM dendrimer (28,826 Da), complexed electrostatically with Alexa555-labelled scrambled shRNA; also called Alexa555-shRNA/4PD complexes; 4PD/Alexa555 complexes
B1 was tested, and the “fold increase of apparent Kd (avidity) against the free peptide” value [1] was about 1000 times and the Kd [2] was 3000 nM.
